Assay results reported in US20090062199A1, “Nogo Receptor Polypeptides and Polypeptide Fragments and Uses Thereof” (Biogen Idec MA Inc., priority 2005, published 2009).

T1: TAJ (UniProt Q9NS68 30-170, limits assumed)
T1 construct: also called TROY
T1 sequence (looked up): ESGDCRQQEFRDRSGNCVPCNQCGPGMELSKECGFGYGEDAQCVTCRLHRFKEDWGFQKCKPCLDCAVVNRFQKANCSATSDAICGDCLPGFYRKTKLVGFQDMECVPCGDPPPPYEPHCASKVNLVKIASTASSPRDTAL

T2: LINGO-1 (Homo sapiens, UniProt Q96FE5)
T2 sequence (Q96FE5 42-620): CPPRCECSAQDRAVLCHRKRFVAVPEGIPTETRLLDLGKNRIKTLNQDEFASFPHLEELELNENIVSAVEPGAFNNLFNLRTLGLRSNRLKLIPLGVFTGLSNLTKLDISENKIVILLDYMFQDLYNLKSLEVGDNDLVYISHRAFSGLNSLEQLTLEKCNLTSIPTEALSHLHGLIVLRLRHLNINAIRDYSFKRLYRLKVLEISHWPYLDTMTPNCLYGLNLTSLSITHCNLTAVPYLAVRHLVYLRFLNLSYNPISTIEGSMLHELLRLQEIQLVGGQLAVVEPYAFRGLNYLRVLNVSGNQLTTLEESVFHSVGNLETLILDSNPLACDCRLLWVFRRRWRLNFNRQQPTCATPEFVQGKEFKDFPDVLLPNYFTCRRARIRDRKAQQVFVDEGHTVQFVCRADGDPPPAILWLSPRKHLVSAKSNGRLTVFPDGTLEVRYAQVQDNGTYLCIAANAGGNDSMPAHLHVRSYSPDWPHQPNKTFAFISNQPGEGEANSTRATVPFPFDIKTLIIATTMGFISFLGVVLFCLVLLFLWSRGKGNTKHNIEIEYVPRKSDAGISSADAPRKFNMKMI

T3: p75 (Homo sapiens, UniProt P08138)
T3 sequence (P08138 29-427): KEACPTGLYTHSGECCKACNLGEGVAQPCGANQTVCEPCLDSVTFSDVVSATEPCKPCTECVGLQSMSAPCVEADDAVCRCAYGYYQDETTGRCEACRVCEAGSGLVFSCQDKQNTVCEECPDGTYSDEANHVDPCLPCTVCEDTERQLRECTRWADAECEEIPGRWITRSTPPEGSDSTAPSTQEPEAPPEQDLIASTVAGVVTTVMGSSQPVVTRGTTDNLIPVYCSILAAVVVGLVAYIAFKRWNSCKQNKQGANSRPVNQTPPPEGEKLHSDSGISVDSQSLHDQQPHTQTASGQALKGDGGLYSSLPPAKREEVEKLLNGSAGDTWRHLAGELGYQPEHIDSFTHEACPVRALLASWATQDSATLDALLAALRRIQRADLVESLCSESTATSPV

T4: Nogo-66 (Homo sapiens, UniProt Q9NQC3)
T4 construct: Nogo-66 is a 66 amino acid peptide from NogoA
T4 sequence (Q9NQC3 1055-1120 limits assumed): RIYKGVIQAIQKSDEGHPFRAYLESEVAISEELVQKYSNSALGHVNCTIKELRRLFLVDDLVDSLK

T5: TAJ (Homo sapiens, UniProt Q9NS68)
T5 sequence (Q9NS68 30-423): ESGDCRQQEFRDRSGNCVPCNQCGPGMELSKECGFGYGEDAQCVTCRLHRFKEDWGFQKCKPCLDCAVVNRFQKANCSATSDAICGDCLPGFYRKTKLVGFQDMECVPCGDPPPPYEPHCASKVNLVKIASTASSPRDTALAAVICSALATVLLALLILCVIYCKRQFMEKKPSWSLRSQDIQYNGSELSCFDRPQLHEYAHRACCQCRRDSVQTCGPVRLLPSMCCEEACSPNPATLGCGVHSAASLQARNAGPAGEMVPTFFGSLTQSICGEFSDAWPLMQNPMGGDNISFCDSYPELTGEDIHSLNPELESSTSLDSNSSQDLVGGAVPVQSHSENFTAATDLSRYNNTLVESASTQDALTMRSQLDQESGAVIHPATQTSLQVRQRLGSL

T6: OMgp (Homo sapiens, UniProt P23515)
T6 sequence (P23515 25-417): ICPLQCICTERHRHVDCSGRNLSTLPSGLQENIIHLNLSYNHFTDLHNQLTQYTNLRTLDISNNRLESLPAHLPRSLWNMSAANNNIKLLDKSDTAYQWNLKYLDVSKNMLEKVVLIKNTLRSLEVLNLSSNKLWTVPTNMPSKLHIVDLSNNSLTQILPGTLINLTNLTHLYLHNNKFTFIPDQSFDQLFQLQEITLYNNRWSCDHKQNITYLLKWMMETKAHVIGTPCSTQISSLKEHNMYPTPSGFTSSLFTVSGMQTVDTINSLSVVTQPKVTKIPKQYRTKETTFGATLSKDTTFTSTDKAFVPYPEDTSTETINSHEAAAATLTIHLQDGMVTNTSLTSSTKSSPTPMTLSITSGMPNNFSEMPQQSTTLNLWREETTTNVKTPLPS

B1: Human NgR1, excluding the GPI domain (FL-NgR1, residues 27-438) with a flag tag at its N-terminus (receptor)
chain: CPGACVCYNEPKVTTSCPQQGLQAVPVGIPAASQRIFLHGNRISHVPAASFRACRNLTILWLHSNVLARIDAAAFTGLALLEQLDLSDNAQLRSVDPATFHGLGRLHTLHLDRCGLQELGPGLFRGLAALQYLYLQDNALQALPDDTFRDLGNLTHLFLHGNRISSVPERAFRGLHSLDRLLLHQNRVAHVHPHAFRDLGRLMTLYLFANNLSALPTEALAPLRALQYLRLNDNPWVCDCRARPLWAWLQKFRGSSSEVPCSLPQRLAGRDLKRLAANDLQGCAVATGPYHPIWTGRATDEEPLGLPKCCQPDAADKASVLEPGRPASAGNALKGRVPPGDSPPGNGSGPRHINDSPFGTLPGSAEPPLTAVRPEGSEPPGFPTSGPRRRPGCSRKNRTRSHCRLGQAGSGG
notes: Soluble protein expressed in CHO cells; also called human FL-NgR1; NgRI; not shown: N-terminal flag tag
B2: FL-NgR1: Human NgR1 excluding the GPI domain, residues 27-438 (SEQ ID NO:22), N-terminal flag tag, expressed in CHO cells (protein)
chain: CPGACVCYNEPKVTTSCPQQGLQAVPVGIPAASQRIFLHGNRISHVPAASFRACRNLTILWLHSNVLARIDAAAFTGLALLEQLDLSDNAQLRSVDPATFHGLGRLHTLHLDRCGLQELGPGLFRGLAALQYLYLQDNALQALPDDTFRDLGNLTHLFLHGNRISSVPERAFRGLHSLDRLLLHQNRVAHVHPHAFRDLGRLMTLYLFANNLSALPTEALAPLRALQYLRLNDNPWVCDCRARPLWAWLQKFRGSSSEVPCSLPQRLAGRDLKRLAANDLQGCAVATGPYHPIWTGRATDEEPLGLPKCCQPDAADKASVLEPGRPASAGNALKGRVPPGDSPPGNGSGPRHINDSPFGTLPGSAEPPLTAVRPEGSEPPGFPTSGPRRRPGCSRKNRTRSHCRLGQAGSGG
modifications: N-terminal FLAG tag; Human NgR-1

Experiments:
TAJ [1] = molecular target: T1, TAJ; assay: ELISA; reference is NgR1(310)
LINGO-1 = molecular target: T2, LINGO-1; assay: ELISA binding of FL-NgR1 to LINGO-1; conditions: compared with truncated versions containing the LRR region alone
Text: (§1) On size exclusion chromatography (SEC), the protein eluted as a single peak with a mass of about 80 kDa (FIG. 2B). […] See, for e.g., Shao, et al., (2005), Neuron 45, 353-359. A 10-fold higher affinity for Taj was seen using FL-NgR1 compared with the truncated versiox NgR1 (310) containing just the LRR region as described in Id.

AP-OMgp = assay: Competition ELISA, anti-NgR1 antibody blocking binding of AP-OMgp to FL-NgR1; conditions: anti-NgR1 antibody used to block binding; FIG. 2C
Text: as §1

p75 = molecular target: T3, p75; assay: ELISA binding of FL-NgR1 to p75; conditions: compared with truncated versions containing the LRR region alone
Nogo-66 = molecular target: T4, Nogo-66; assay: ELISA binding of FL-NgR1 to Nogo-66; conditions: compared with truncated versions containing the LRR region alone
AP-Lingo-1 = assay: Competition ELISA, anti-NgR1 antibody blocking binding of AP-Lingo-1 to FL-NgR1; conditions: anti-NgR1 antibody used to block binding; FIG. 2C
Text: as §1

TAJ [2] = molecular target: T5, TAJ; assay: ELISA binding of FL-NgR1 to TAJ; conditions: compared with truncated versions containing the LRR region alone
Text: as §1

OMgp = molecular target: T6, OMgp; assay: ELISA binding of FL-NgR1 to OMgp; conditions: compared with truncated versions containing the LRR region alone

Row | Molecule | fold higher affinity compared with NgR1 (310) (TAJ [1]) [fold] | binding in an ELISA assay to LINGO-1 (LINGO-1) | binding of AP-OMgp in competition ELISA (AP-OMgp) | binding in an ELISA assay to p75 (p75) | binding in an ELISA assay to Nogo-66 (Nogo-66) | binding of AP-Lingo-1 in competition ELISA (AP-Lingo-1) | binding in an ELISA assay to TAJ (TAJ [2]) | binding in an ELISA assay to OMgp (OMgp)
1 | B1 | 10 | – | – | – | – | – | – | –
2 | B2 | – | as well as or better than truncated versions containing the LRR region alone | verified the activities of FL-NgR1 | as well as or better than truncated versions containing the LRR region alone | as well as or better than truncated versions containing the LRR region alone | verified the activities of FL-NgR1 | as well as or better than truncated versions containing the LRR region alone | as well as or better than truncated versions containing the LRR region alone
